{
  "source": "patent US4790988A",
  "about": "“Method and compositions for the treatment of thrombotic episodes” (University of Florida, priority 1987, dated 1988)",
  "molecules": {"B1": {"name": "tissue plasminogen activator: homogeneous recombinant human tissue plasminogen activator (Genentech) (protein, UniProt P00750 36-562, looked up)", "Tissue-type plasminogen …": "SYQVICRDEKTQMIYQQHQSWLRPVLRSNRVEYCWCNSGRAQCHSVPVKSCSEPRCFNGGTCQQALYFSDFVCQCPEGFAGKCCEIDTRATCYEDQGISYRGTWSTAESGAECTNWNSSALAQKPYSGRRPDAIRLGLGNHNYCRNPDRDSKPWCYVFKAGKYSSEFCSTPACSEGNSDCYFGNGSAYRGTHSLTESGASCLPWNSMILIGKVYTAQNPSAQALGLGKHNYCRNPDGDAKPWCHVLKNRRLTWEYCDVPSCSTCGLRQYSQPQFRIKGGLFADIASHPWQAAIFAKHRRSPGERFLCGGILISSCWILSAAHCFQERFPPHHLTVILGRTYRVVPGEEEQKFEVEKYIVHKEFDDDTYDNDIALLQLKSDSSRCAQESSVVRTVCLPPADLQLPDWTECELSGYGKHEALSPFYSERLKEAHVRLYPSSRCTSQHLLNRTVTDNMLCAGDTRSGGPQANLHDACQGDSGGPLVCLNDGRMTLVGIISWGLGCGQKDVPGVYTKVTNYLDWIRDNMRP"}},
  "tested_on": "thrombus in the circumflex coronary artery",
  "assay": "Electrically induced coronary thrombus model in dogs, restoration of blood flow",
  "type": "in vivo",
  "settings": "infused into a peripheral vein for 30 minutes at 10 microgram/kg/min; mongrel dogs",
  "description": "A thrombus was introduced into the circumflex coronary artery of mongrel dogs by electrical current. Blood flow in the artery was measured by a commercially available electromagnetic flow probe. After stable blood flow for five minutes without electrical current, homogeneous recombinant human tissue plasminogen activator (Genentech) was infused into a peripheral vein for 30 minutes at a dose of 10 microgram/kg/min. In another cohort of animals, pentapeptide 6A was infused intra-arterially proximal to the occlusion at a dose of 5 micromoles/min for 20 min.",
  "data": [
    {"molecule": "B1", "values": [
      {"measurement": "animals with coronary blood flow restored", "value": "5 of 7"},
      {"measurement": "duration reflow persisted", "value": "20.0 ± 10.9", "unit": "min"},
      {"measurement": "peak restored coronary blood flow (mean±SD)", "value": "22 ± 12", "unit": "mL/min"},
      {"measurement": "time to flow restoration", "value": "12.3 ± 9.1", "unit": "min"}
    ]}
  ]
}
